The record followed here is US20260109761A1 (IP2IPO INNOVATIONS, published 2026).

Numbering of substitutions follows the chain as printed.

The target of assay [1] is T1, huZIP12-ECD-GST (human, UniProt Q504Y0 24-202).
T1 construct: also called hZIP12-ECD-GST; human ZIP12-ECD-GST; not shown: glutathione S-transferase (GST) tag
The assay is described as follows: SPR single cycle kinetics (Biacore): mAb captured on protein A, huZIP12-ECD-GST injected; mean±SD of the control runs. On the procedure:
(§1) Single Cycle Kinetics (SCK) involves first capturing the mAb onto the protein A sensor surface and then sequentially injecting a series of concentrations of huZIP12-ECD-GST over the surface starting at the lowest concentration and ending with the highest concentration. The final concentration is followed by a dissociation phase where buffer only is passed across the surface followed by regeneration, where the remaining bound huZIP12-ECD-GST is removed from the surface by injection of a 10 mM Glycine pH 1.5 and 50 mM NaOH solution. The SCK is repeated for each monoclonal antibody providing duplicate data and the kinetics of each interaction is evaluated by the Biacore software.

Assay [2] concerns the target T1, huZIP12-ECD-GST. The assay is described as follows: HTRF competition: unlabelled antibody against Tb-labelled 51B12-parent on hZIP12-ECD-GST, detected with anti-GST-XL665. On the procedure: Homogeneous Time Resolved Fluorescence (HTRF) assays were used to analyse the antibodies. A checkerboard assay was performed to validate the binding of the terbium labeled-antibody with hZIP12-ECD-GST. Serial dilutions (starting at 1000 ng/ml, semi-log dilutions) of Terbium-labeled 51B12-parent were incubated with serial dilutions of hZIP12-ECD-GST (starting at 5000 ng/ml, semi-log dilutions) followed by incubation with anti-GST-XL665. After excitation (320 nm), emission signals were obtained and HTRF ratio was calculated (665 nm/615 nm, Panel A). Signal/background ratios (S/B) were calculated from the HTRF ratios (0 ng/ml hZIP12-ECD-GST as background signal) and plotted against the Tb-51B12-parent concentration. The combinations 500 ng/ml hZIP12-ECD-GST+50 ng Tb-Ab, 150 ng/ml hZIP12-ECD-GST+50 ng Tb-Ab and 50 ng/ml hZIP12-ECD-GST+50 ng Tb-Ab were chosen as range for the competition assay. For the HTRF assay, 150 ng/ml hZIP12-ECD-GST+30 ng/ml Tb-51B12 was selected.

Assay [3] addresses T1, huZIP12-ECD-GST. The assay is described as follows: SPR single cycle kinetics (Biacore): mAb captured on protein A, huZIP12-ECD-GST injected at 2.34-600 nM, extended dissociation. On the procedure: as §1
(§2) A selection of the higher affinity antibody variants were re-tested at a lower concentration series with an extended dissociation time with the objective of obtaining a better assessment of the binding kinetics. Referring now to FIG. 7, there are shown the data for the monoclonal antibodies that were re-tested to optimise the binding kinetic data. Once again, three antibody variants, H3_W99H_L1, H3_W99HL2 and H3_W99H_VL-par, all appear to have a higher affinity than the parent antibody. The on-rate (ka), off-rate (kd) and overall affinity measurement (KD) are all improved compared to the 51B12 VH_VL_par parent antibody.

Assay [4] has as its target T1, huZIP12-ECD-GST. In words: SPR single cycle kinetics, 2.34-600 nM huZIP12-ECD-GST, extended dissociation; re-test, lower concentrations, extended dissociation. On the procedure:
as §1, §2

Assay [5] has as its target T1, huZIP12-ECD-GST. In words: SPR single cycle kinetics (Biacore): mAb captured on protein A, huZIP12-ECD-GST injected at 3.12-800 nM. On the procedure: as §1
(§3) Referring to FIG. 6, there are shown the kinetic parameters obtained for all antibody variants when screened with the 3.12 nM to 800 nM huZIP12-ECD-GST. […] Affinity.

The target of assay [6] is T1, huZIP12-ECD-GST. In words: SPR single cycle kinetics, mAb captured on protein A, 3.12-800 nM huZIP12-ECD-GST. On the procedure:
as §1, §3

T1 sequence (Q504Y0 24-202): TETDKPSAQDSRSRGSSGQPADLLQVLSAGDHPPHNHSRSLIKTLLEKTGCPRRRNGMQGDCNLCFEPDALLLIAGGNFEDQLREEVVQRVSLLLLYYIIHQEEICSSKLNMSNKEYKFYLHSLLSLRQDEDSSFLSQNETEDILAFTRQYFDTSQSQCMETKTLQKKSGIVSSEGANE

B1: 51B12 parent (antibody, V domains shown)
VH: QVQLVESGGGVVQPGRSLRLSCAASGFTFSDYGMHWVRQAPGKGLEWVAYISSGGTTIYYADTVKGRFTISRDNSKNTLYLQMNSLRAEDTAVYYCARWTNLYAMDYWGQGTTVTVSS
VL: DIVLTQSPDSLAVSLGERATINCRASKSVSTSGYSYMHWYQQKPGQPPKFLIYLASNLESGVPDRFSGSGSGTDFTLTISSLQAEDVAVYYCQHSREVPYTFGGGTKVEIKR
notes: Fc null human IgG1 / human kappa
As to B1, in the assay with huZIP12-ECD-GST [1], the Kd turned out to be 0.969 nM and the koff stood at 2.66e-05 s⁻¹. In the assay with huZIP12-ECD-GST [2], the “IC50 (read off the curve)” value is approximately 0.2 µg/mL. In the assay with huZIP12-ECD-GST [3], binding was characterised by a dissociation constant (Kd) of 1.09 nM, the koff is 3e-05 s⁻¹ and the kon was 27500 M⁻¹ s⁻¹. In the assay with huZIP12-ECD-GST [4], this molecule returned a Kd of 1.1 nM.

B2: H3_W99H_VL-par (antibody, V domains shown)
VH: B1 VH with W99H
VL: B1 VL
notes: as for B1
As to B2, the results for the Kd in the assay with huZIP12-ECD-GST [5], in the assay with huZIP12-ECD-GST [6] and in the assay with huZIP12-ECD-GST [3] were 0.481 nM, approximately 0.5 nM and 0.322 nM, respectively. In addition, the koff in the assay with huZIP12-ECD-GST [5] was 4.67e-05 s⁻¹; with huZIP12-ECD-GST [3], 3.29e-05 s⁻¹. In addition, the results for the kon in the assay with huZIP12-ECD-GST [5] and with huZIP12-ECD-GST [3] were 97100 M⁻¹ s⁻¹ and 102000 M⁻¹ s⁻¹, respectively.
